The record followed here is article PMC3482686.

This experiment has as its target AEBP2 (shorter isoform) (human). Description: negative-stain EM 3D reconstruction with localisation of MBP and GFP tags; purified PRC2-AEBP2 complex mildly cross-linked with 0.015% glutaraldehyde, stained with 2% uranyl formate; random conical tilt and projection matching, 21 Å; tags located in reference-free 2D class averages.

In turn, “EED (from UniProt O75530 1-441) (natural protein)” yielded a stoichiometry N of 1. With “Ezh2 (from UniProt Q15910-2 1-751) (enzyme)” the figure was 1.
